Test results published in patent publication US20230129095A1, “PEPTIDE INHIBITORS OF INTERLEUKIN-23 RECEPTOR AND THEIR USE TO TREAT INFLAMMATORY DISEASES” (Protagonist Therapeutics, Inc., priority 2020, published 2023).
Bridges are numbered along the chain shown (N, C = ends). [ ]: non-standard residue; d: D form. Trp(7-Ph) = N[C@@H](Cc1c[nH]c2c(-c3ccccc3)cccc12)C(=O)O; 2Nal = N[C@@H](Cc1ccc2ccccc2c1)C(=O)O; AEF = NCCOc1ccc(C[C@H](N)C(=O)O)cc1; αMeK = C[C@](N)(CCCCN)C(=O)O; Abu = CC[C@H](N)C(=O)O

T1: interleukin-23 receptor (IL-23R), human (human, UniProt Q5VWK5 24-629)
T1 sequence (looked up): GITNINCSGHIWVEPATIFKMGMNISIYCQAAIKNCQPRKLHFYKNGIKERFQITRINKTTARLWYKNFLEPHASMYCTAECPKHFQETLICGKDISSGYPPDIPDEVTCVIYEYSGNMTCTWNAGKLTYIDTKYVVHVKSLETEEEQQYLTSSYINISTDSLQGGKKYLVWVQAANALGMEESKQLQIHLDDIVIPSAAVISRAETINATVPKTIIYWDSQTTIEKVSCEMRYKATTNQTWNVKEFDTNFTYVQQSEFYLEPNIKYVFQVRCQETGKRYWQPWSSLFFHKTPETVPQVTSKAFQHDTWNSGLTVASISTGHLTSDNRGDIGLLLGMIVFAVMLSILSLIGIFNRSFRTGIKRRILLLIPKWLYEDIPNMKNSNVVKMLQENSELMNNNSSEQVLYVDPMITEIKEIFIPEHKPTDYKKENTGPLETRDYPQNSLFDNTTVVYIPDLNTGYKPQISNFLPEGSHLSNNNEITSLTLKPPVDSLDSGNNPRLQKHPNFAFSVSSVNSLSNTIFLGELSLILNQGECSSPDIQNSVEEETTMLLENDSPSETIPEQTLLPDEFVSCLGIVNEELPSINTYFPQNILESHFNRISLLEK

B1: Peptide No. 1 (SEQ ID No. 1) (peptide)
peptide: XNTXKXXXXKNL
modifications: Ac-[Pen]-N-T-[W(7-Ph)]-[Lys(Ac)]-[Pen]-Phe[4-(2-aminoethoxy)]-[2-Nal]-[a-MeLys]-[Lys(Ac)]-N-[(D)Leu]-NH2; N-terminal acetyl, C-terminal amide; cyclized via Pen-Pen disulfide bond
B2: Peptide No. 18 (SEQ ID No. 18) (peptide)
peptide: Ac-[Abu]QT[Trp(7-Ph)]K(Ac)C[AEF][2Nal][αMeK]K(Ac)N[dL]-NH2
modifications: thioether 1-6
B3: Peptide No. 16 (SEQ ID No. 16) (peptide)
peptide: XNTXKXXXXKNL
modifications: Ac-[Pen]-N-T-[W(7-Ph)]-[Lys(Ac)]-[Pen]-Phe[4-(2-aminoethoxy)]-[3Quin]-[a-MeLys]-[Lys(Ac)]-N-[(D)Leu]-NH2; N-terminal acetyl, C-terminal amide; cyclized via Pen-Pen disulfide bond
B4: Peptide No. 14 (SEQ ID No. 14) (peptide)
peptide: XNTXKXXXXKNK
modifications: Ac-[Pen]-N-T-[W(7-Ph)]-[Lys(Ac)]-[Pen]-Phe[4-(2-aminoethoxy)]-[3Quin]-[a-MeLys]-[Lys(Ac)]-N-[(D)Lys]-NH2; N-terminal acetyl, C-terminal amide; cyclized via Pen-Pen disulfide bond
B5: Peptide No. 15 (SEQ ID No. 15) (peptide)
peptide: XNTXKXXXXENL
modifications: Ac-[Pen]-N-T-[W(7-Ph)]-[Lys(Ac)]-[Pen]-Phe[4-(2-aminoethoxy)]-[3Quin]-[THP]-E-N-[(D)Leu]-NH2; N-terminal acetyl, C-terminal amide; cyclized via Pen-Pen disulfide bond
B6: Peptide No. 13 (SEQ ID No. 13) (peptide)
peptide: XNTXKXXXXENK
modifications: Ac-[Pen]-N-T-[W(7-Ph)]-[Lys(Ac)]-[Pen]-Phe[4-(2-aminoethoxy)]-[3Quin]-[THP]-E-N-[(D)Lys]-NH2; N-terminal acetyl, C-terminal amide; cyclized via Pen-Pen disulfide bond

Each binder was assayed against T1, interleukin-23 receptor (IL-23R), human (assay: cell-based or functional assay).

Row | pStat3 HTRF IC50 (DB cells IL23R pSTAT3 cell assay, 0.5 nM IL-23) [nM] | Binder
1 | 0.518 | B1
2 | 0.993 | B2
3 | 0.365 | B3
4 | 0.437 | B4
5 | 0.186 | B5
6 | 0.386 | B6

Biological target: T1, interleukin-23 receptor (IL-23R), human
Assay: cell-based or functional assay
Remark: another data set of the same source

Row | NK Cell Assay IC50 (IFNgamma secretion by human NK cells stimulated with IL-23 and IL-18) [nM] | Binder
7 | 4.3 | B1
8 | 6.28 | B2
9 | 2.9 | B3
10 | 2.41 | B4
11 | 2.44 | B5
12 | 1.55 | B6
